Results: patent publication CN111320688A

Experiments:
[1] = target: 黄病毒属中的登革病毒、寨卡病毒、西尼罗河病毒和黄热病毒的E蛋白
[2] = target: 登革病毒1-4型、西尼罗河病毒和黄热病毒 (病毒颗粒表面E蛋白); experiment: cell-based or functional assay

B1: TIB12抗体 (antibody, V domains shown)
VH: EVQLLESGGGLVQPGGSLRLSCAASGFTFSSQVMSWVRQAPGRGLEWVSVIHTGGSSTYYADSVKGRFTISRDNSKNTVFLHMNSLRVEDTALYYCAKGSAYGDYVEY
VL: QSVLTQPPSVSGAPGQRVTISCTGSSSNIGAGYDVHWYQQPPGTAPKLLIYGNNNRPSGVPDRFSGSKSGTSASLAITGLQAEDEADYYCQSYDSSLSGGV
[1]
  Kd: 0.13 to 0.85 nM
[2]
  IC50 (中和能力; Vero细胞感染, 流式检测): 0.04 to 1.31 µg/mL
